Here are results for four substances from PMC8062024.

Read-outs that look alike come from different tables or passages of the source.

As to “PmCOX (Penaeus monodon cyclooxygenase): N424Q”, where the note is “N-glycosylation at N424”, the enzymatic_activity entry is “abolishes, secreted PGE2 2.79 nM vs 7.40 nM wild type (empty vector 2.68 nM)”.

On to “PmCOX (Penaeus monodon cyclooxygenase): N79Q/N170Q/N424Q triple mutant”, for which the enzymatic_activity result runs as follows: (N-glycosylation at N79) “abolishes, secreted PGE2 2.23 nM vs 7.40 nM wild type (empty vector 2.68 nM)”; (N-glycosylation at N170) “abolishes, secreted PGE2 2.23 nM vs 7.40 nM wild type (empty vector 2.68 nM)”; (N-glycosylation at N424) “abolishes, secreted PGE2 2.23 nM vs 7.40 nM wild type (empty vector 2.68 nM)”. Also, the expression_or_secretion result is on record as “decreases” (N-glycosylation at N79), “decreases” (N-glycosylation at N170) and “decreases” (N-glycosylation at N424).

For “PmCOX (Penaeus monodon cyclooxygenase): N170Q”, the enzymatic_activity entry (N-glycosylation at N170) is “abolishes, secreted PGE2 2.45 nM vs 7.40 nM wild type (empty vector 2.68 nM)”.

On to “PmCOX (Penaeus monodon cyclooxygenase): N79Q”, for which, under “N-glycosylation at N79”, the enzymatic_activity result is given as “no change, secreted PGE2 8.65 nM vs 7.40 nM wild type (40 uM ARA)” and the expression_or_secretion entry is “no change”.
